Molecular target: porcine milk butyrylcholinesterase (Sus scrofa (domestic pig), UniProt A0A4X1VEU5)
Test: ELISA

Sequence of porcine milk butyrylcholinesterase (P32752 whole entry): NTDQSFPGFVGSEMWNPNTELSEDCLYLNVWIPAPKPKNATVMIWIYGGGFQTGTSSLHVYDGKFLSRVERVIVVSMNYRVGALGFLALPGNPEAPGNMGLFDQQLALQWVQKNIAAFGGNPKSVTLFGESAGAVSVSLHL

B1: mouse anti-HuBChE monoclonal antibody B2 18-5 (antibody, V domains shown)
VH: QVQLQQSGAELVRPGSSVKISCKASGYAFSDYWMNWVKQRPGQGLEWIGQIYPGDGDTYYNGKFKGKATLTADKSSSTAYMQLSSLISEDSAVYFCARSRPLLDYSMHYWGQGASVTVSS
VL: DIQMTQSSSSFSVSLGDRVTITCKTSEDIYNRLAWYQQKPGNAPRLLISGATSLETGVPSRFSGSGSGEDFTLSITSLQTEDVATYYCQQYWSTPYTFGGGTKLEIK
Question: Does B1 bind?
Answer: Result: no binding

From paper PMC6086383 (Archives of biochemistry and biophysics, 2018)
